Assay results published in the RNAGym collection of RNA variant scans (doi:10.7554/elife.90254).

B1: LINE1-full (parent)
chain: UACGUAGGUGGUUUUCCCCUGAUAGUGCUAAGGGGGCCUGGAAGUUUGGACUGGGCAGAGCUCAACACAGCGUGGCAAAGUGGCUGUGGCUAGACUGCCUCUCUGGAUUCCUCGUCACUCAGCAGGGCAUCUCUGAGAGAAAUGCC

Variants of: B1
Test: self-cleavage, relative activity (ratio to wild type); higher = more cleavage; in vitro, sequencing; the parent is a self-cleaving ribozyme

Row | Variant | self-cleavage
1 | G35U | 1.22
2 | A92U U102C | 0.3
3 | C3U U13C | 0.74
4 | U39A U91A | 0.56
5 | C95U C118A | 0.13
6 | A6U U9A | 1.56
7 | A2G U134A | 1.38
8 | G54A A121C | 1.05
9 | G54A A121G | 0.51
10 | U14A A136C | 1.78
11 | U102C C145U | 1.93
12 | U130C C133A | 1.61
13 | U45G G106U | 0.64
14 | G54U U100C | 0.22
15 | A94G A138C | 0.22
16 | C37U U134C | 1.25
17 | U112A A136G | 1.71
18 | A64G G82A | 0.19
19 | U9A A67G | 0.58
20 | U9G U45C | 0.25
21 | A65U A142G | 0.19
22 | U20C C128U | 1.24
23 | G11A U12C | 0.33
24 | U1C C98U | 0.13

Row | Variant | self-cleavage
25 | G83A U119C | 1.51
26 | U29G U134A | 1.41
27 | A124G A140G | 0.24
28 | A94U | 0.29
29 | U13A C37U | 0.72
30 | U20A U87G | 0.21
31 | A59U C128U | 1.02
32 | U5C C110A | 1.19
33 | U14C U112A | 1.17
34 | G4U G80C | 1.07
35 | U47A A138U | 1.59
36 | A42U A57G | 0.63
37 | A30G A59G | 0.11
38 | U29C U102A | 1.84
39 | U47G A140G | 0.71
40 | U62A A140G | 0.04
41 | A57C G86A | 0.04
42 | U39C A79C | 2.53
43 | A129U A138U | 1.47
44 | A24U A59G | 0.06
45 | U15A G32A | 0.66
46 | G80A A117G | 2.22
47 | U100A C146G | 1.26
48 | U73C A77U | 1.31

Row | Variant | self-cleavage
49 | U132A A138G | 1.39
50 | U45C A50U | 1.02
51 | A64U G106U | 0.34
52 | U46G U115C | 1.69
53 | A30U U143A | 0.77
54 | G32U G55A | 0.18
55 | C95A A129G | 0.09
56 | U108G U115C | 1.58
57 | U109G A121G | 0
58 | U12C U23C | 1.34
59 | G11A A65G | 0.02
60 | G40U A117G | 0.97
61 | U23A C146U | 1.27
62 | A50G G127A | 0.68
63 | C19U G72A | 1.19
64 | U9C G41A | 1.06
65 | U23C A140C | 1.35
66 | U100C U143C | 1.97
67 | A129C A140U | 1.75
68 | A43G A107U | 0.7
69 | U23C G74A | 0.99
70 | U100A U132C | 0.65
71 | A107U C146U | 1.21
72 | G33U A107G | 1.74

Row | Variant | self-cleavage
73 | A65C G97A | 0.04
74 | U73C A142U | 1.24
75 | A2C A138G | 2.07
76 | A30C C113U | 1.32
77 | G32A U100A | 0.74
78 | A43U U87A | 0.03
79 | A31U A107G | 1.28
80 | U45C C66U | 0.04
81 | U62C U96A | 0.03
82 | C37G A43G | 1.36
83 | A6U U12A | 0.84
84 | G44A A94G | 0.27
85 | U96A U115C | 0.05
86 | U26G G34A | 0.93
87 | U14A U47C | 1.14
88 | U12C A22G | 1.64
89 | A22G A129C | 0.27
90 | C51U U130C | 1.4
91 | A59U U85A | 0.1
92 | A78U U134C | 2.05
93 | A64G U102C | 0.34
94 | A129G G144U | 1.67
95 | A107C A136U | 1.2
96 | A67C A117C | 0.03

Row | Variant | self-cleavage
97 | G8C A142G | 1.21
98 | G41A U143C | 0.95
99 | U29C A124G | 1.02
100 | U29C A124U | 1.04
101 | C19U U81C | 1
102 | G32A A64U | 0.36
103 | U47C A129G | 1.49
104 | U23C U143A | 1.28
105 | U14C G34A | 0.92
106 | G40A A129G | 1.42
107 | G40A A129U | 0.46
108 | U15A A79G | 0
109 | U115C A121C | 1.66
110 | C3U U26A | 1.04
111 | U39A U85A | 0.11
112 | U45C U62C | 0.07
113 | G32C G33U | 1.02
114 | U9A G80A | 1.92
115 | A42G C99A | 0.94
116 | C28A G54A | 0.57
117 | U9C U12C | 1.13
118 | G48A G125A | 1.38
119 | A57G A136U | 0.95
120 | G60U A64U | 0.05

Row | Variant | self-cleavage
121 | A121G A138C | 1.71
122 | A78U C99U | 1.07
123 | U100C C103A | 0.85
124 | A107U U109C | 1.58
125 | U104A U143C | 1.13
126 | A107G A140G | 1.87
127 | U12G A107G | 1.58
128 | U47C U134A | 1.34
129 | U1C G34U | 0.68
130 | A79G U91C | 0.45
131 | G33U U96C | 0.17
132 | C113A U115A | 1.55
133 | U23G U112C | 1.07
134 | C98A U102C | 0.13
135 | A50U A124G | 0.71
136 | G36A U62C | 0.05
137 | U47C A138U | 1.52
138 | G7A U91C | 0.34
139 | U73C A107U | 2.22
140 | U14C G105U | 1.11
141 | G126U A129U | 0.81
142 | U81A U96A | 0.07
143 | A2U U119C | 1.26
144 | U20A G33U | 0.66

Row | Variant | self-cleavage
145 | G7C A92G | 0
146 | U47G G135A | 0.79
147 | U9C G126U | 1.68
148 | A31G U39G | 1.37
149 | A92G A138G | 0.08
150 | U23C A124U | 1.22
151 | A30G C63A | 0.3
152 | G36A G89U | 0.01
153 | C63U | 0.36
154 | A6U C18U | 0.84
155 | A24G G86A | 0.12
156 | G75A A129U | 1.13
157 | C28A U134C | 1.92
158 | U109A A117G | 1.42
159 | A43U C90A | 0.07
160 | U14C A129U | 1.35
161 | C51U A136G | 1.34
162 | A92G U102C | 0.11
163 | U5C U112C | 0.99
164 | U81A U115C | 2.44
165 | U26A C120A | 1.12
166 | C16U A124U | 0.88
167 | U13C G21A | 0.94
